Target: BG505 SOSIP.664 native-like envelope gp140 trimer (HIV-1 (BG505))
Experiment: cryo-EM structure

Work on M48U1 peptide yielded a stoichiometry N (per BG505 trimer) of 3.

— paper doi:10.1101/2020.08.21.261974
